Laboratory results taken from US20250170257A1 (NANOLATTIX BIOTECHNOLOGY, published 2025).

How the values were obtained:
tissue factor [1] = molecular target: T1, tissue factor (UniProt P13726 33-251, limits assumed); assay: SPR (Biacore S200), antibody amine-coupled on CM5 chip, tissue factor as analyte 1.125-18 nM; MAb01
T1 construct: also called TF; antigen tissue factor
Text: (§1) The humanized anti-tissue factor antibody was coupled to the 2nd channel on the surface of the CM5 chip via amino groups, the 1st and the 3rd channels were used as reference channels, the tissue factor flew through the chip surface as the analyte (mobile phase). […] The Kinetics/Affinity program of Bicore S200 was run to measure the affinity.

tissue factor [2] = molecular target: T1, tissue factor; assay: SPR (Biacore S200), antibody amine-coupled on CM5 chip, tissue factor as analyte 1.125-18 nM; MAb02
Text: as §1

tissue factor [3] = molecular target: T1, tissue factor; assay: SPR (Biacore S200), same method, tissue factor as analyte 12.5-200 nM; parent antibody before modification; tissue factor 12.5-200 nM
Text: as §1

T1 sequence (P13726 33-251 limits assumed): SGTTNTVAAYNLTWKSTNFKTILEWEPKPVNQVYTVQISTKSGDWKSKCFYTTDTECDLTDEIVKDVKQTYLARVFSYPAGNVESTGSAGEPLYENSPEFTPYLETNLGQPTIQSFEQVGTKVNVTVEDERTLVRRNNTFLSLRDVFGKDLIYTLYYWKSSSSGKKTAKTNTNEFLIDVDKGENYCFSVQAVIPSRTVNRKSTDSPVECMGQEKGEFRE

B1: humanized anti-tissue factor antibody MAb01 (antibody, V domains shown)
VH: QIQLVQSGPELVKPGASVQVSCKTSGYSFTDYNVYWVRQSPAKGIEWIGYIDPYNGLTIYEQNFRGKGTLSLDHSTSTAYMELNSLRYEDTAVYFCARDVTTALDFWGQGTSVTVSS
VL: DIQMTQSPASISASIGERVTITCLASQTIDTWLAWFLQKPGRSPNLLIYAATNLADGVPYRFSASGSGNDFSLTISSLNPEDVATYYCQQVYSSPFTFGQGNKLEIRR
Binder B1 has a Kd (tissue factor [1]) of 0.357 nM.

B2: humanized anti-tissue factor antibody MAb02 (antibody, V domains shown)
VH: QIQLVQSGPEVVKPGASVRVSCKGSGYSFTDYNIYWVRQSPAKGLEWIGYIDPYNGLTIYDQNFRAKATLSVDHSTSNAYMEINSLRYEDTAVYFCARDVTSALEFWGQGTSVTVSS
VL: DIQMTQSPASISASVGERVTITCLGSQTIDTYLAWYLQKPGRSPQLLIYAATQLADGVPSRFSASGSGTDFSLTISSLQPEDVATYYCQNVYSSPFTFGQGNKLEIKR
notes: Full heavy chain (449 aa) and light chain (214 aa), expressed in CHO-dhfr- cells
B2 gave a Kd (tissue factor [2]) of 1 nM.

B3: humanized antibody against tissue factor before modification (CN 107446047A) (antibody, V domains shown)
VH: EVQLQQSGPELVKPGASVKVSCKASGYTFTHFNVYWVRQSPGKGLEWIGYIDPDNGITFYDENFMGKATLTVDKSSSTAYMQLNSLTSEDSAVYYCARDVTTAVDFWGQGTTLTVSS
VL: DIQMTQSPSSLSASVGDRVTITCLATQTLDTWLAWYQQKPGKAPQLLIYAATYLADGVPSRFSGSGSGTDFTFTISSLQPEDFATYYCQLVYSSPSTFGQGTKLEIK
notes: also called humanized antibody before modified
B3 showed a Kd (tissue factor [3]) of 33.7 nM.
